{"source": "paper PMC6223037", "about": "“Dye-decolorizing peroxidases in Irpex lacteus combining the catalytic properties of heme peroxidases and laccase play important roles in ligninolytic system” (Biotechnology for Biofuels, 2018)", "proteins": {"B1": {"name": "IlDyP2 (Irpex lacteus) (protein)", "chain": "YHVKRARSSPLIGSFPGQPPLPTIAEVQSSSAGNDSLPFENIQGDILVGMKKDKEKFVFFHINNATTFKSFLKTYAPANITSVQTIIGPASGQPQAFVNLAFSHTGFGALGVADDLQDTAFTAGQFADAPSFGDDTSTWEEAFKGTNVDGVFLIGSDDVTTTNQYRDDLKAKLGDAWTVLLDLDSAARPGAEKGHEHFGYLDGISNPTIPGFGTPFPGQAVVDSGVIFAGRTNDPVTNRPSWALDGSFLVFRKLKQLVPEFHKWTLDNALQNQAGNLTVEEGALLLGSRMFGRWNSGAPIDLTPDVDDPTLGNDPQRNNDFNYIHPGEDLTTDETRCPFTAHVRKTNPRDLEAQGLIPDLFHAIRAGTPYGPEVTDAESNSNTTSIDRGLAFVEYQSVISNGFRFQQLNWANNANFPFNKSEPLGLDPVIGQGTRQTFGLDPRNASDSLTIPQIIISNGGEYFFSPSITALVEHFGA"}, "B2": {"name": "IlDyP1 (Irpex lacteus) (protein)", "chain": "YHVKRARTTSLLGSFPGQGALPTVAQVQSTSSGNDSLPLENIQGDILVGMKKQKEQFVFFHINNATTFKKVLKTYAPANITSIQTLLSAPSAQPLAFVNLAFSQSGATALGVTDDLGDSFFSAGQFADASALGDDTSNWDSTFTGTDVHGVFLIGSDETSFVEQYQSDLEAKLGDAWTVSLTIASAARPGDEAGHEHFGYLDGISNPTITGFGTALPGQSVVDPGIILAGRTGDTVSRPSWALDGSFLVFRKLKQLVPEFNKWTLANAIQNASGNLTAQEGADLLGSRMFGRWKSGAPIDLSPDVDDASLGTDPQRNNNFNYTHAGSDITSDESRCPFSAHIRKTNPRDLESVIGHANHAIRAGTPYGPELTDDESSSGTTSTDRGLAFVEYQSNIGNGFRTQQEVWANAAAFPFGKTESIGLDPVIGQGDRTTYGLNAQNVTESYSVPSFVISNGGEYFFSPSITALVETFAA"}}, "key": {"[1]": {"substrate": "CCn1c(=NN=c2sc3cc(S(=O)(=O)O)ccc3n2CC)sc2cc(S(=O)(=O)O)ccc21", "test": "peroxidase oxidation, spectrophotometric; nonlinear fit", "format": "biochemical, Irpex lacteus", "details": "pH 3, 25 °C, 50 mM sodium tartrate, co-substrate H2O2", "text": "(§1) peroxidase oxidation, spectrophotometric; nonlinear fit on IlDyP2"}, "[2]": {"substrate": "COc1cccc(OC)c1O", "test": "peroxidase oxidation, spectrophotometric; nonlinear fit", "format": "biochemical, Irpex lacteus", "details": "pH 3, 25 °C, 50 mM sodium tartrate, co-substrate H2O2", "text": "as §1"}, "purified protein": {"substrate": "COc1ccccc1O", "test": "purified protein", "details": "50 mM sodium tartrate"}, "[3]": {"substrate": "CCn1c(=NN=c2sc3cc(S(=O)(=O)O)ccc3n2CC)sc2cc(S(=O)(=O)O)ccc21", "test": "peroxidase oxidation, spectrophotometric; nonlinear fit", "format": "biochemical, Irpex lacteus", "details": "pH 4, 25 °C, 50 mM sodium tartrate, co-substrate H2O2", "text": "(§2) peroxidase oxidation, spectrophotometric; nonlinear fit on IlDyP1"}, "[4]": {"substrate": "COc1cccc(OC)c1O", "test": "peroxidase oxidation, spectrophotometric; nonlinear fit", "format": "biochemical, Irpex lacteus", "details": "pH 4, 25 °C, 50 mM sodium tartrate, co-substrate H2O2", "text": "as §2"}, "[5]": {"details": "pH 3, 25 °C, co-substrate H2O2, pH 3.0"}, "[6]": {"details": "pH 4, 25 °C, co-substrate H2O2, pH 4.0"}}, "data": [{"protein": "B1", "values": [{"measurement": "Km", "setting": "[1]", "result": "125.0 ± 1.4", "unit": "µM"}, {"measurement": "kcat", "setting": "[1]", "result": 396, "unit": "s⁻¹"}, {"measurement": "kcat/Km", "setting": "[1]", "result": "3.2e+06", "unit": "M⁻¹ s⁻¹"}, {"measurement": "Km", "setting": "[2]", "result": "1631.7 ± 10.9", "unit": "µM"}, {"measurement": "kcat", "setting": "[2]", "result": "561 ± 19.3", "unit": "s⁻¹"}, {"measurement": "kcat/Km", "setting": "[2]", "result": "340000 ± 20000", "unit": "M⁻¹ s⁻¹"}, {"measurement": "Km", "setting": "purified protein; [5]", "result": "229.1 ± 15.9", "unit": "µM"}, {"measurement": "kcat", "setting": "purified protein; [5]", "result": 49.7, "unit": "s⁻¹"}, {"measurement": "kcat/Km", "setting": "purified protein; [5]", "result": 220000, "unit": "M⁻¹ s⁻¹"}]}, {"protein": "B2", "values": [{"measurement": "Km", "setting": "[3]", "result": "693.1 ± 8.5", "unit": "µM"}, {"measurement": "kcat", "setting": "[3]", "result": "356 ± 11.2", "unit": "s⁻¹"}, {"measurement": "kcat/Km", "setting": "[3]", "result": "510000 ± 10000", "unit": "M⁻¹ s⁻¹"}, {"measurement": "Km", "setting": "[4]", "result": "892.7 ± 81.5", "unit": "µM"}, {"measurement": "kcat", "setting": "[4]", "result": "199 ± 12.6", "unit": "s⁻¹"}, {"measurement": "kcat/Km", "setting": "[4]", "result": "220000 ± 10000", "unit": "M⁻¹ s⁻¹"}, {"measurement": "Km", "setting": "purified protein; [6]", "result": "592.1 ± 53.0", "unit": "µM"}, {"measurement": "kcat", "setting": "purified protein; [6]", "result": 49.2, "unit": "s⁻¹"}, {"measurement": "kcat/Km", "setting": "purified protein; [6]", "result": 83000, "unit": "M⁻¹ s⁻¹"}]}]}
